Test results published in patent US20240238445A1, “INHIBITORS AND USES THEREOF” (NEURACLE SCIENCE CO., LTD., priority 2021, published 2024).

B1: LRRC4B (498-576): LRRC4B ectodomain fragment, amino acids 498-576 of SEQ ID NO: 2 (protein)
chain: QPGEEALQPRGTEKEPPGPTTDGVWGGGRPGDAAGPASSSTTAPAPRSSRPTEKAFTVPITDVTENALKDLDDVMKTTK
B2: LRRC4B (453-576): LRRC4B ectodomain fragment, amino acids 453-576 of SEQ ID NO: 2; FLAG-tagged or hFc-fused (protein)
chain: VSAVDPVAAGGTGSGGGGPGGSGGVGGGSGGYTYFTTVTVETLETQPGEEALQPRGTEKEPPGPTTDGVWGGGRPGDAAGPASSSTTAPAPRSSRPTEKAFTVPITDVTENALKDLDDVMKTTK
modifications: FLAG tag or human Fc
notes: FLAG-tagged or hFc-fused

Molecular target: binding of FAM19A5 protein to full-length ectodomain of the LRRC4B protein (amino acids 36-576 of SEQ ID NO: 2) (Homo sapiens, UniProt Q7Z5A7)
Sequence (Q7Z5A7 44-132): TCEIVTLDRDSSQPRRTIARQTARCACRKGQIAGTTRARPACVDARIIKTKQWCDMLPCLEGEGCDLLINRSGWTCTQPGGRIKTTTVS
Test: Competitive inhibition assay, plate coated with full-length ectodomain of LRRC4B (amino acids 36-576)
Details: for inhibition of FAM19A5 binding to coated full-length LRRC4B ectodomain protein (in words): increasing concentrations, FAM19A5 5 ng/mL, 100 nM coat
Outline: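 Wells are coated with 100 nM LRRC4B ectodomain (aa 36-576), and 5 ng/mL recombinant FAM19A5 is added with competitor: LRRC4B deletion constructs at increasing concentrations, or synthetic peptides at 20 nM. After incubation at 37 °C, bound FAM19A5 is detected with HRP-conjugated anti-FAM19A5 (1-65) antibody.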

Row | Molecule | inhibition of interaction between FAM19A5 and the coated LRRC4B protein fragments (in words) (20 nM peptide, statement covers both coats, LRRC4B (36-576) and LRRC4B (453-576)) | Inhibition rate (%) LRRC4B (amino acids 36-576)-hFc (Table 8, 20 nM peptide, FAM19A5 5 ng/ml) | Inhibition rate (%) LRRC4B (amino acids 36-576)-hFc (Table 9, deletion variants, 20 nM peptide, FAM19A5 5 ng/ml) | Inhibition rate (%) LRRC4B (amino acids 36-576)-hFc (Table 10, alanine/asparagine mutants) | inhibition of FAM19A5 binding to coated full-length LRRC4B ectodomain protein (in words)
1 | GYTYFTTVTVETLETQPGEE [FB-20] | significantly decreased the interaction | 77.0% | 84.3% | 77.0% | –
2 | B1 | – | – | – | – | much inferior in their ability to inhibit the interaction
3 | B2 | – | – | – | – | able to inhibit FAM19A5 protein from binding
